# From publication PMC2724291 (Nucleic Acids Research, 2009)
# Numbering of substitutions follows the chain as printed. Numbers in names are those of the source. Where two headings read alike, the source gives them in different places.
# B1: hMBP-γ (H1 and H2 of the putative coiled-coil motif of ϕC31 Int fused to histidine-tagged maltose-binding protein) (domain or fragment, phage ϕC31, UniProt Q9T221 445-524, looked up)
# chain: GKLTEAPEKSGERANLVAERADALNALEELYEDRAAGAYDGPVGRKHFRKQQAALTLRQQGAEERLAELEAAEAPKLPLD
# B2: hMBP-γ^E449K (domain or fragment, phage ϕC31, UniProt Q9T221 445-524, looked up)
# chain: B1 chain with E5K
# B3: wild-type ϕC31 integrase (Int) (enzyme, phage ϕC31, UniProt Q9T221 1-605, looked up)
# chain: MDTYAGAYDRQSRERENSSAASPATQRSANEDKAADLQREVERDGGRFRFVGHFSEAPGTSAFGTAERPEFERILNECRAGRLNMIIVYDVSRFSRLKVMDAIPIVSELLALGVTIVSTQEGVFRQGNVMDLIHLIMRLDASHKESSLKSAKILDTKNLQRELGGYVGGKAPYGFELVSETKEITRNGRMVNVVINKLAHSTTPLTGPFEFEPDVIRWWWREIKTHKHLPFKPGSQAAIHPGSITGLCKRMDADAVPTRGETIGKKTASSAWDPATVMRILRDPRIAGFAAEVIYKKKPDGTPTTKIEGYRIQRDPITLRPVELDCGPIIEPAEWYELQAWLDGRGRGKGLSRGQAILSAMDKLYCECGAVMTSKRGEESIKDSYRCRRRKVVDPSAPGQHEGTCNVSMAALDKFVAERIFNKIRHAEGDEETLALLWEAARRFGKLTEAPEKSGERANLVAERADALNALEELYEDRAAGAYDGPVGRKHFRKQQAALTLRQQGAEERLAELEAAEAPKLPLDQWFPEDADADPTGPKSWWGRASVDDKRVFVGLFVDKIVVTKSTTGRGQGTPIEKRASITWAKPPTDDDEDDAQDGTEDVAA
# Assays:
# SEC [1] = biological target: the molecule itself; assay: SEC
# SEC [2] = biological target: the molecule itself; assay: SEC; remark: listed apart in the source
protein,measurement,setting,value
B1,stoichiometry N,SEC [1],2
B2,binding result,SEC [1],binds
B3,binding result,SEC [2],binds
